How the values were obtained:
SCN9A-4-B2M = test: SPR, ligand SCN9A-4-B2M, analyte 5C12D2C8, 1:1 binding fit; analyte at 12.5 to 400 nM per paragraph 79
polypeptide C9797BL020-7 [1] = biological target: T1, polypeptide C9797BL020-7; test: affinity sorting, kinetic fit in RU, antibody as analyte solution
T1 construct: also called antigen peptide
T1 peptide: CDSVNVDKQPKYEYS

polypeptide C9797BL020-7 [2] = biological target: T1, polypeptide C9797BL020-7; test: SPR, antibody at 12.5, 25, 50, 100, 200 and 400 nM

B1: monoclonal antibody 5C12D2C8 (antibody, V domains shown)
VH: EVQLVESGGDLVKPGGSLKLSCAASGFTFSSGGMSWVRQTPDKRLEWVATISNGGGETYYEDSVKGRFTISRDNAKNTLYLQMNSLKSEDTAMYYCAREEYEGTWYEDVWGAGTTVTVSS
VL: DVLMTQTPLSLPVSLGDQASISCTSSQSGVHSNGNTELEWYLQKPGQSPKLLIYKVSNRTSGVPDRFSGSGSGTDFTLKISRVEAEDLGVYYCGQGSHVGRTFGGGTKLEIKR
kon (SCN9A-4-B2M): 28100 M⁻¹ s⁻¹ | Kd (polypeptide C9797BL020-7 [1]): 4.55 nM | koff (polypeptide C9797BL020-7 [1]): 0.00023 s⁻¹ | kon (polypeptide C9797BL020-7 [1]): 50600 M⁻¹ s⁻¹ | Kd (polypeptide C9797BL020-7 [2]): 8.78 nM | koff (polypeptide C9797BL020-7 [2]): 0.000247 s⁻¹
